Experimental data: PMC4669772, “The conserved Trp114 residue of thioredoxin reductase 1 has a redox sensor-like function triggering oligomerization and crosslinking upon oxidative stress related to cell death” (Cell Death & Disease, 2015)

Assays:
[1] = target: the molecule itself; experiment: SEC; propensity of purified recombinant rat TrxR1 variants to form oligomers (Supplementary Figure S8); oligomers separated on Superdex G200 at 4 °C
[2] = target: the molecule itself; experiment: native gel or EMSA; purified recombinant TrxR1 tetramers, native PAGE under oxidized (non-reducing) conditions; dimers to tetramer
[3] = target: the molecule itself; experiment: native gel or EMSA; purified recombinant TrxR1 tetramers, native PAGE under reducing conditions

Protein | binding result [1] | stoichiometry N [2] | stoichiometry N [3]
recombinant rat TrxR1 W114E (enzyme, selenocysteine (Sec, U) at 498, thioredoxin reductase 1, rat, with Trp114 changed to Glu; also called Glu114; source: E. coli BL21 (DE3) gor-, purified (2'5'-ADP Sepharose, Superdex G200 size exclusion)) MNDSKDAPKSYDFDLIIIGGGSGGLAAAKEAAKFDKKVMVLDFVTPTPLGTRWGLGGTCVNVGCIPKKLMHQAALLGQALKDSRNYGWKLEDTVKHDWEKMTESVQNHIGSLNEGYRVALREKKVVYENAYGKFIGPHKIMATNNKGKEKVYSAERFLIATGERPRYLGIPGDKEYCISSDDLFSLPYCPGKTLVVGASYVALECAGFLAGIGLDVTVMVRSILLRGFDQDMANKIGEHMEEHGIKFIRQFVPTKIEQIEAGTPGRLKVTAKSTNSEETIEDEFNTVLLAVGRDSCTRTIGLETVGVKINEKTGKIPVTDEEQTNVPYIYAIGDILEGKLELTPVAIQAGRLLAQRLYGGSTVKCDYDNVPTTVFTPLEYGCCGLSEEKAVEKFGEENIEVYHSFFWPLEWTVPSRDNNKCYAKVICNLKDNERVVGFHVLGPNAGEVTQGFAAALKCGLTKQQLDSTIGIHPVCAEIFTTLSVTKRSGGDILQSGCUG | binds | – | –
recombinant rat TrxR1 W114G (enzyme, selenocysteine (Sec, U) at 498, thioredoxin reductase 1, rat, with Trp114 changed to Gly; also called Gly114; source: E. coli BL21 (DE3) gor-, purified (2'5'-ADP Sepharose, Superdex G200 size exclusion)) MNDSKDAPKSYDFDLIIIGGGSGGLAAAKEAAKFDKKVMVLDFVTPTPLGTRWGLGGTCVNVGCIPKKLMHQAALLGQALKDSRNYGWKLEDTVKHDWEKMTESVQNHIGSLNGGYRVALREKKVVYENAYGKFIGPHKIMATNNKGKEKVYSAERFLIATGERPRYLGIPGDKEYCISSDDLFSLPYCPGKTLVVGASYVALECAGFLAGIGLDVTVMVRSILLRGFDQDMANKIGEHMEEHGIKFIRQFVPTKIEQIEAGTPGRLKVTAKSTNSEETIEDEFNTVLLAVGRDSCTRTIGLETVGVKINEKTGKIPVTDEEQTNVPYIYAIGDILEGKLELTPVAIQAGRLLAQRLYGGSTVKCDYDNVPTTVFTPLEYGCCGLSEEKAVEKFGEENIEVYHSFFWPLEWTVPSRDNNKCYAKVICNLKDNERVVGFHVLGPNAGEVTQGFAAALKCGLTKQQLDSTIGIHPVCAEIFTTLSVTKRSGGDILQSGCUG | binds | – | –
recombinant rat TrxR1 W114R (enzyme, selenocysteine (Sec, U) at 498, thioredoxin reductase 1, rat, with Trp114 changed to Arg; also called Arg114; source: E. coli BL21 (DE3) gor-, purified (2'5'-ADP Sepharose, Superdex G200 size exclusion)) MNDSKDAPKSYDFDLIIIGGGSGGLAAAKEAAKFDKKVMVLDFVTPTPLGTRWGLGGTCVNVGCIPKKLMHQAALLGQALKDSRNYGWKLEDTVKHDWEKMTESVQNHIGSLNRGYRVALREKKVVYENAYGKFIGPHKIMATNNKGKEKVYSAERFLIATGERPRYLGIPGDKEYCISSDDLFSLPYCPGKTLVVGASYVALECAGFLAGIGLDVTVMVRSILLRGFDQDMANKIGEHMEEHGIKFIRQFVPTKIEQIEAGTPGRLKVTAKSTNSEETIEDEFNTVLLAVGRDSCTRTIGLETVGVKINEKTGKIPVTDEEQTNVPYIYAIGDILEGKLELTPVAIQAGRLLAQRLYGGSTVKCDYDNVPTTVFTPLEYGCCGLSEEKAVEKFGEENIEVYHSFFWPLEWTVPSRDNNKCYAKVICNLKDNERVVGFHVLGPNAGEVTQGFAAALKCGLTKQQLDSTIGIHPVCAEIFTTLSVTKRSGGDILQSGCUG | binds | – | –
recombinant rat TrxR1 W114F (enzyme, selenocysteine (Sec, U) at 498, thioredoxin reductase 1, rat, with Trp114 changed to Phe; also called Phe114; source: E. coli BL21 (DE3) gor-, purified (2'5'-ADP Sepharose, Superdex G200 size exclusion)) MNDSKDAPKSYDFDLIIIGGGSGGLAAAKEAAKFDKKVMVLDFVTPTPLGTRWGLGGTCVNVGCIPKKLMHQAALLGQALKDSRNYGWKLEDTVKHDWEKMTESVQNHIGSLNFGYRVALREKKVVYENAYGKFIGPHKIMATNNKGKEKVYSAERFLIATGERPRYLGIPGDKEYCISSDDLFSLPYCPGKTLVVGASYVALECAGFLAGIGLDVTVMVRSILLRGFDQDMANKIGEHMEEHGIKFIRQFVPTKIEQIEAGTPGRLKVTAKSTNSEETIEDEFNTVLLAVGRDSCTRTIGLETVGVKINEKTGKIPVTDEEQTNVPYIYAIGDILEGKLELTPVAIQAGRLLAQRLYGGSTVKCDYDNVPTTVFTPLEYGCCGLSEEKAVEKFGEENIEVYHSFFWPLEWTVPSRDNNKCYAKVICNLKDNERVVGFHVLGPNAGEVTQGFAAALKCGLTKQQLDSTIGIHPVCAEIFTTLSVTKRSGGDILQSGCUG | binds | – | –
recombinant rat thioredoxin reductase 1 (TrxR1), wild type (enzyme, selenocysteine (Sec, U) at 498, thioredoxin reductase 1, rat, expressed from a pET-TRSTER-derived plasmid with pSUABC; FAD-containing homodimer; tetramers (two dimers) were purified from the same preparation in the absence of reductant; In the tetramer two of the four Trp114 are modified (oxidised) and linked; also called WT; wild-type TrxR1; source: E. coli BL21 (DE3) gor-, purified (2'5'-ADP Sepharose, Superdex G200 size …)) MNDSKDAPKSYDFDLIIIGGGSGGLAAAKEAAKFDKKVMVLDFVTPTPLGTRWGLGGTCVNVGCIPKKLMHQAALLGQALKDSRNYGWKLEDTVKHDWEKMTESVQNHIGSLNWGYRVALREKKVVYENAYGKFIGPHKIMATNNKGKEKVYSAERFLIATGERPRYLGIPGDKEYCISSDDLFSLPYCPGKTLVVGASYVALECAGFLAGIGLDVTVMVRSILLRGFDQDMANKIGEHMEEHGIKFIRQFVPTKIEQIEAGTPGRLKVTAKSTNSEETIEDEFNTVLLAVGRDSCTRTIGLETVGVKINEKTGKIPVTDEEQTNVPYIYAIGDILEGKLELTPVAIQAGRLLAQRLYGGSTVKCDYDNVPTTVFTPLEYGCCGLSEEKAVEKFGEENIEVYHSFFWPLEWTVPSRDNNKCYAKVICNLKDNERVVGFHVLGPNAGEVTQGFAAALKCGLTKQQLDSTIGIHPVCAEIFTTLSVTKRSGGDILQSGCUG | – | 4 | 2
